Results reported in PMC5127646.

Target: RBM5 OCRE domain (residues 451-511), wild type (human) (UniProt P52756)
Assay: ITC; Sm tail constructs with wild type OCRE; SmN constructs (1 mM) titrated into OCRE (100 μM); ITC200, 24°C, 20 mM sodium phosphate pH 6.5, 50 mM NaCl; duplicates

RBM5 OCRE domain (residues 451-511), wild type (human), sequence (P52756 other isoform, or with tags, fused parts or gaps): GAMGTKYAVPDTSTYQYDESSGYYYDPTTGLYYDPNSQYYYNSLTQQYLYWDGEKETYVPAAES

Row | Substance | Kd
1 | SmB 167-231 4P→4A (from UniProt P14678-2 167-231) (domain or fragment) | 20 µM
2 | SmB 167-231 R1/R2→E1/E2 (from UniProt P14678-2 167-231) (domain or fragment) | 159 µM
3 | SmN 167-240 R1/R2→E1/E2 (from UniProt P63162 167-240) (domain or fragment) | 150 µM
4 | SmN 167-240 R1→E1 (from UniProt P63162 167-240) (domain or fragment) | 66.5 µM
5 | SmN 167-240 R2→E2 (from UniProt P63162 167-240) (domain or fragment) | 74 µM
